Data: article PMC2756588

T1: Abp1, P15891
T1 sequence (P15891 535-592, looked up): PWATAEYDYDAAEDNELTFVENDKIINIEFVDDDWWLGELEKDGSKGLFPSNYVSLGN

T2: Pin3, Q06449
T2 sequence (Q06449 53-122, looked up): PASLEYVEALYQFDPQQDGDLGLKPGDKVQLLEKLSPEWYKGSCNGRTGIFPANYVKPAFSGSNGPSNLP

T3: Cyk3, Q07533
T3 sequence (Q07533 1-83, looked up): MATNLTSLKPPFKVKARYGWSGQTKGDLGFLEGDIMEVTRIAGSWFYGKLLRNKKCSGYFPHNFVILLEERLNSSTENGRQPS

T4: Cdc25, P04821
T4 sequence (P04821 50-136, looked up): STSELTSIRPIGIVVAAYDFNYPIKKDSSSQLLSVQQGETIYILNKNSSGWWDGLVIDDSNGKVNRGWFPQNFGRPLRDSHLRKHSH

T5: Bbc1, P47068
T5 sequence (P47068 1-78, looked up): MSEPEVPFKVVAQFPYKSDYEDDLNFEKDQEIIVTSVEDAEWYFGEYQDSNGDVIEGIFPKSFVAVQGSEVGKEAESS

T6: Boi2, P39969
T6 sequence (P39969 32-116, looked up): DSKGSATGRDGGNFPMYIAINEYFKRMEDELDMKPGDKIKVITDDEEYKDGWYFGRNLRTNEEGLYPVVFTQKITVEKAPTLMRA

T7: Lsb3, P43603
T7 sequence (P43603 385-451, looked up): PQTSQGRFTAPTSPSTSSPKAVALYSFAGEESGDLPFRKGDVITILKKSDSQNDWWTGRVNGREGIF

T8: Nbp2, Q12163
T8 sequence (Q12163 103-180, looked up): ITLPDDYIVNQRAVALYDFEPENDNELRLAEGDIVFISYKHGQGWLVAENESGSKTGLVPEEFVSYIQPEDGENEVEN

T9: Fus1, P11710
T9 sequence (P11710 432-512, looked up): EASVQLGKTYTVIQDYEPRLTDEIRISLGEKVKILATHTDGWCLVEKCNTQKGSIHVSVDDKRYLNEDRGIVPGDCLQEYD

T10: Lsb4, P32793
T10 sequence (P32793 402-468, looked up): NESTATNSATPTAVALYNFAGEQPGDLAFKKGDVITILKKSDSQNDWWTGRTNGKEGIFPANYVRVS

T11: Myo5, Q04439
T11 sequence (Q04439 1072-1160, looked up): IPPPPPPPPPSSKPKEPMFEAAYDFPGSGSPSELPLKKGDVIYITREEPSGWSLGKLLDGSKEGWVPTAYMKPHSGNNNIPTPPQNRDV

T12: Boi1, P38041
T12 sequence (P38041 1-86, looked up): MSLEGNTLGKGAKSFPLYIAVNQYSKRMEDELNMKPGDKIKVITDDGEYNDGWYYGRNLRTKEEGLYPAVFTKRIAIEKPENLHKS

T13: Hof1, Q05080
T13 sequence (Q05080 590-669, looked up): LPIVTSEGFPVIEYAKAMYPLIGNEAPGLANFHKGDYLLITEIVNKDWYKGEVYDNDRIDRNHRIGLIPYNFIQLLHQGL

T14: Bud14, P27637
T14 sequence (P27637 247-328, looked up): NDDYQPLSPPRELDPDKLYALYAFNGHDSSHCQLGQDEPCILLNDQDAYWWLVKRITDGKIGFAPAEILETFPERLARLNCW

T15: Sla1-2, P32790
T15 sequence (P32790 60-140, looked up): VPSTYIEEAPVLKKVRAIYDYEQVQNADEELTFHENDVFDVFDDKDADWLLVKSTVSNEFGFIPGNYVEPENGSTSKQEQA

T16: Bzz1-1, P38822
T16 sequence (P38822 478-572, looked up): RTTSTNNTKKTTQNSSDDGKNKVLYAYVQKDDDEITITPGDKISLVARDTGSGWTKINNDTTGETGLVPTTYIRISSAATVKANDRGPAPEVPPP

T17: Lsb1, P53281
T17 sequence (P53281 45-122, looked up): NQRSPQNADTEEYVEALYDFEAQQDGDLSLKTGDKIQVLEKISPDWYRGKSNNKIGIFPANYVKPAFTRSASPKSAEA

T18: Bzz1-2, P38822
T18 sequence (P38822 568-633, looked up): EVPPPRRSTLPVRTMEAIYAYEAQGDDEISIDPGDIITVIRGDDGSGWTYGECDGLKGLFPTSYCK

T19: Sla1-3, P32790
T19 sequence (P32790 344-424, looked up): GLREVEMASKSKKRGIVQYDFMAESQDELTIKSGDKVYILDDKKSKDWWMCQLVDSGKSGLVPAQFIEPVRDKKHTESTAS

T20: Pex13, P80667
T20 sequence (P80667 295-386, looked up): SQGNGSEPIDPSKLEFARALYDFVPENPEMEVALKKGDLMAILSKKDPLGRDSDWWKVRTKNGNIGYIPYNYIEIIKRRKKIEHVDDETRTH

T21: Hse1, P38753
T21 sequence (P38753 208-285, looked up): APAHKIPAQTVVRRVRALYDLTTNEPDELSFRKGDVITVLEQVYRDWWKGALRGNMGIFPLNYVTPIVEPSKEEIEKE


Columns and labels:
Assay in all cases: SPOT array
[1] = target: T1, Abp1, P15891; details: median of control spots 935
[2] = target: Sho1, P40073; details: median of control spots 1148
[3] = target: T2, Pin3, Q06449; details: median of control spots 2171
[4] = target: T3, Cyk3, Q07533; details: median of control spots 1451
[5] = target: T4, Cdc25, P04821; details: median of control spots 969
[6] = target: T5, Bbc1, P47068; details: median of control spots 796
[7] = target: T6, Boi2, P39969; details: median of control spots 1161
[8] = target: T7, Lsb3, P43603; details: median of control spots 406
[9] = target: T8, Nbp2, Q12163; details: median of control spots 357
[10] = target: Bem1-2, P29366; details: median of control spots 4347
[11] = target: T9, Fus1, P11710; details: median of control spots 1200
[12] = target: T10, Lsb4, P32793; details: median of control spots 397
[13] = target: T11, Myo5, Q04439; details: median of control spots 471
[14] = target: T12, Boi1, P38041; details: median of control spots 1162
[15] = target: T13, Hof1, Q05080; details: median of control spots 4086
[16] = target: Rvs167, P39743; details: median of control spots 2707
[17] = target: T14, Bud14, P27637; details: median of control spots 956
[18] = target: Bem1-1, P29366; details: median of control spots 4282
[19] = target: T15, Sla1-2, P32790; details: median of control spots 712
[20] = target: GST; details: median of control spots 978
[21] = target: T16, Bzz1-1, P38822; details: median of control spots 4446
[22] = target: Myo3, P36006; details: median of control spots 468
[23] = target: T17, Lsb1, P53281; details: median of control spots 388
[24] = target: T18, Bzz1-2, P38822; details: median of control spots 4538
[25] = target: T19, Sla1-3, P32790; details: median of control spots 5475
[26] = target: T20, Pex13, P80667; details: median of control spots 1341
[27] = target: T21, Hse1, P38753; details: median of control spots 1727

Chain of Bem1-1, P29366 (P29366 55-141): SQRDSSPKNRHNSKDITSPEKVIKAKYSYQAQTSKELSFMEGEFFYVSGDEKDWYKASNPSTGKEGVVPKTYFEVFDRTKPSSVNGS
Chain of Sho1, P40073 (P40073 287-367): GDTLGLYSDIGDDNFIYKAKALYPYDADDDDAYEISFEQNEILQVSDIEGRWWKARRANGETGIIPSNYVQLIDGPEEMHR
Chain of Rvs167, P39743 (P39743 419-482): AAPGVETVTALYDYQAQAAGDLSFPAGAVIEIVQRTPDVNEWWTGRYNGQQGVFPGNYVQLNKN
Chain of Bem1-2, P29366 (P29366 139-227): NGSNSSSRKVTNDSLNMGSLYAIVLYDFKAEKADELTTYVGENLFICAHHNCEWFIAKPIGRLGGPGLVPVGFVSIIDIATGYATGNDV

Binder	SPOT intensity [1]	SPOT intensity [2]	SPOT intensity [3]	SPOT intensity [4]	SPOT intensity [5]	SPOT intensity [6]	SPOT intensity [7]	SPOT intensity [8]	SPOT intensity [9]	SPOT intensity [10]	SPOT intensity [11]	SPOT intensity [12]	SPOT intensity [13]	SPOT intensity [14]	SPOT intensity [15]	SPOT intensity [16]	SPOT intensity [17]	SPOT intensity [18]	SPOT intensity [19]	SPOT intensity [20]	other results
PKMLPIPSKPTLFDL	173	164	69	0	0	0	0	15	19	0	0	42	52	0	0	0	0	0	3	1	SPOT intensity [21]: 0; SPOT intensity [22]: 36; SPOT intensity [23]: 2; SPOT intensity [24]: 0; SPOT intensity [25]: 0; SPOT intensity [26]: 52; SPOT intensity [27]: 0
GQYRRTIVIPRRFFT	184	124	18	4	156	258	6	16	120	17	48	28	2	30	8	0	13	0	8	5	SPOT intensity [21]: 3; SPOT intensity [22]: 17; SPOT intensity [23]: 19; SPOT intensity [24]: 0; SPOT intensity [25]: 58; SPOT intensity [26]: 20; SPOT intensity [27]: 11
RSKRLFPVRPMATAH	110	90	12	0	22	49	0	4	46	14	17	15	2	0	7	9	6	0	0	0	SPOT intensity [21]: 1; SPOT intensity [22]: 2; SPOT intensity [23]: 5; SPOT intensity [24]: 13; SPOT intensity [25]: 36; SPOT intensity [26]: 11; SPOT intensity [27]: 12
TSIEIPKRSPLRFTS	60	8	10	0	13	12	2740	5	0	0	0	8	2	3040	0	0	5	0	792	0	SPOT intensity [21]: 0; SPOT intensity [22]: 4; SPOT intensity [23]: 0; SPOT intensity [24]: 0; SPOT intensity [25]: 0; SPOT intensity [26]: 19; SPOT intensity [27]: 0
